In article PMC7695563 one finds Kd, koff and kon data, which are given here for one substance.

This test concerns the target MG1113, IgG4 monoclonal anti-tissue factor pathway inhibitor (TFPI) antibody. Kind of test: SPR. On the technique in general: Surface plasmon resonance follows binding to a sensor surface in real time, without labels.

On to “TFPI-α (tissue factor pathway inhibitor alpha) (from UniProt P10646-1 29-304) (natural protein)”, for which the Kd (usually the equilibrium constant for the complex coming apart) is 0.0467 nM; the koff (in general, the first-order rate constant of dissociation) stood at 0.000131 s⁻¹; the kon (as a rule, the second-order rate constant of association) stood at 2.82e+06 M⁻¹ s⁻¹.
